These are literature values, as cited in publication PMC8757841.

In this data set the target is Transferrin receptor (Rattus norvegicus) (UniProt Q99376).
Chain of UniProt Q99376 (Q99376 whole entry): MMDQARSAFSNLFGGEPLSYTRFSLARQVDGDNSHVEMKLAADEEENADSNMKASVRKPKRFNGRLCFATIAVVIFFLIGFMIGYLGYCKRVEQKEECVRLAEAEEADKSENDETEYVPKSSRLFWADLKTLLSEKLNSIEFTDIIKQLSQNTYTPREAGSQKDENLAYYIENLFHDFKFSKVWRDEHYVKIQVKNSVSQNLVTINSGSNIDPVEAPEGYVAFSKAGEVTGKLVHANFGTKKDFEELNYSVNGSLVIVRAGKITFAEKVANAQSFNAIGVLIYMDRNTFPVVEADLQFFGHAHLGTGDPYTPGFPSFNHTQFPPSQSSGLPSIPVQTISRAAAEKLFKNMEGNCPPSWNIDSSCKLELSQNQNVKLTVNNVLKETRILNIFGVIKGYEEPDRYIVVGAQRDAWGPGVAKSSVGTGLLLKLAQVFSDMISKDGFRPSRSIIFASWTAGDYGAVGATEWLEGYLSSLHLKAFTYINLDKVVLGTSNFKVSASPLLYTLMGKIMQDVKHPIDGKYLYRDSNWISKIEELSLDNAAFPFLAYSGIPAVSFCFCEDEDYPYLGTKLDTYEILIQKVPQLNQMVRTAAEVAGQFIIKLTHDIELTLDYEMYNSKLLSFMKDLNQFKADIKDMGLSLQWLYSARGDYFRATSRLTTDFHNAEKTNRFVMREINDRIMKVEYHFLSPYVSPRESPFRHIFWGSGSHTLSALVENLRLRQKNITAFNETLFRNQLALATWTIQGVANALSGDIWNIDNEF

Chain of Transferrin (P12346 20-698): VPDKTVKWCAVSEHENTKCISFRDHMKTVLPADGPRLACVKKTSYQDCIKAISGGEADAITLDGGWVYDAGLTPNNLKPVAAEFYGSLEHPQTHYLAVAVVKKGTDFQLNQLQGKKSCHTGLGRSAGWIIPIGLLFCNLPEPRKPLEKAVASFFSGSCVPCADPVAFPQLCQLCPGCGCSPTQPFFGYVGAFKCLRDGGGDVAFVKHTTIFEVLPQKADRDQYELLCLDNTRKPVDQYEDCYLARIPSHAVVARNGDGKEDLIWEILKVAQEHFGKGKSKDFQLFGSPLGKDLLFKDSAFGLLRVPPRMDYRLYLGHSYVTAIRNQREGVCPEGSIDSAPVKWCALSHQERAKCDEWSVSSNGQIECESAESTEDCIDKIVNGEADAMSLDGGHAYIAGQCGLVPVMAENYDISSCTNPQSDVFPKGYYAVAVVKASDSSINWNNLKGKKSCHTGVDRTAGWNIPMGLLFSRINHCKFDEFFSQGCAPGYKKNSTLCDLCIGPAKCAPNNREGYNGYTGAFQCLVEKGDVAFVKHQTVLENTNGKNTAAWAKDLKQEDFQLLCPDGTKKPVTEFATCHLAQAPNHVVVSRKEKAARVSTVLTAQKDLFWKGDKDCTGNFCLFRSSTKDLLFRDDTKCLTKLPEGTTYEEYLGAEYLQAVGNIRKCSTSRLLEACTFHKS

For Transferrin (from UniProt P12346), the equilibrium dissociation constant (Kd) is 5 nM.

The term Kd denotes the constant that tells how readily two partners part at equilibrium.
